# In patent US20130109619A1 (UNITED STATES OF AMERICA AS REPRESENTED BY THE SECRETARY …, published 2013):
# Non-standard residues stand in square brackets, D forms with d. Fluo = fluorescein on the Cys side-chain sulfur; Nle = CCCC[C@H](N)C(=O)O
# B1: IL10-HF-6 (peptide)
# peptide: Ac-C(Fluo)YKA[Nle]SEFDIFINYIEAY[Nle]T[Nle]KIRN-NH2
# notes: also called fluorescent derivative of helix F of IL10; helix F analog
# Molecular target: recombinant Epstein Barr virus (EBV) IL10 (Epstein Barr virus, UniProt P03180 24-170)
# Experiment: concentration-dependent changes in fluorescence intensity of the environment-sensitive fluorescein label on the peptide
# recombinant Epstein Barr virus (EBV) IL10, sequence (P03180 24-170 limits assumed): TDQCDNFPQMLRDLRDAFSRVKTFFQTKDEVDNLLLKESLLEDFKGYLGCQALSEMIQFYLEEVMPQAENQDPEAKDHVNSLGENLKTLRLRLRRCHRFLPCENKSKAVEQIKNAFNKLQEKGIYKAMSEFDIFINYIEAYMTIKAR
binder,measurement,value
B1,Kd,50 nM
